Where a chain is given by its changes, count along the chain named. Names and notes keep the numbering of the source.
B1: PR006370, anti-CD3 SP34 chimeric hIgG1(AAG) (antibody, V domains shown)
VH: EVQLVESGGGLVQPKGSLKLSCAASGFTFNTYAMNWVRQAPGKGLEWVARIRSKYNNYATYYADSVKDRFTISRDDSQSILYLQMNNLKTEDTAMYYCVRHGNFGNSYVSWFAYWGQGTLVTVSA
VL: QAVVTQESALTTSPGETVTLTCRSSTGAVTTSNYANWVQEKPDHLFTGLIGGTNKRAPGVPARFSGSLIGDKAALTITGAQTEDEAIYFCALWYSNLWVFGGGTKLTVLG
notes: Mouse/human chimeric antibody, human IgG1 Fc-silent variant (L234A, L235A, P329G)
B2: PR008551, anti-B7H4xCD3 VH(3G11)-Fc-scFv(PR003366), hIgG1(dCH1, KiH, AAA) (bispecific antibody)
chain 1: RVHLAESGGGLVQAGGSLRLSCAASGSRLNDNAMAWFRQAPGKEREFVGSIFWTGGNTYYADAVKGRLTISRDNAKNALYLQMNSLKPEDTAVYYCAASRVVWYYCSGYGCSRAGDYVYWGQGTQVTVSSASEPKSSDKTHTCPPCPAPEAAGAPSVFLFPPKPKDTLMISRTPEVTCVVVDVSHEDPEVKFNWYVDGVEVHNAKTKPREEQYNSTYRVVSVLTVLHQDWLNGKEYKCKVSNKALPAPIEKTISKAKGQPREPQVYTLPPCREEMTKNQVSLWCLVKGFYPSDIAVEWESNGQPENNYKTTPPVLDSDGSFFLYSKLTVDKSRWQQGNVFSCSVMHEALHNHYTQKSLSLSPGK
chain 2: EIVMTQSPASLSVSPGERATLSCRASQSVSSNLAWYQQKPGQAPRLLIYGASTRATGIPARVSGGGSGTEFTLTISSLQSEDFAVYYCQQYKNWPFTFGPGTKLEIKGGGGSGGGGSGGGGSGGGGSQVQLVQSGAEVKKPGSSMRVSCKASEDTFSSYAISWVRQAPGQGLEWMGGTAPIFGTTNYAQKFQGRVTITADKSTSTAYMELSSLRSEDTAVYYCARGGPYFDYWGQGTLVTVSSASEPKSSDKTHTCPPCPAPEAAGAPSVFLFPPKPKDTLMISRTPEVTCVVVDVSHEDPEVKFNWYVDGVEVHNAKTKPREEQYNSTYRVVSVLTVLHQDWLNGKEYKCKVSNKALPAPIEKTISKAKGQPREPQVCTLPPSREEMTKNQVSLSCAVKGFYPSDIAVEWESNGQPENNYKTTPPVLDSDGSFFLVSKLTVDKSRWQQGNVFSCSVMHEALHNHYTQKSLSLSPGK
B3: PR003899, anti-B7H4xCD3 Fab(PR003886)-Fc-scFv(PR003366), hIgG1(KIH, LALA) (bispecific antibody)
heavy: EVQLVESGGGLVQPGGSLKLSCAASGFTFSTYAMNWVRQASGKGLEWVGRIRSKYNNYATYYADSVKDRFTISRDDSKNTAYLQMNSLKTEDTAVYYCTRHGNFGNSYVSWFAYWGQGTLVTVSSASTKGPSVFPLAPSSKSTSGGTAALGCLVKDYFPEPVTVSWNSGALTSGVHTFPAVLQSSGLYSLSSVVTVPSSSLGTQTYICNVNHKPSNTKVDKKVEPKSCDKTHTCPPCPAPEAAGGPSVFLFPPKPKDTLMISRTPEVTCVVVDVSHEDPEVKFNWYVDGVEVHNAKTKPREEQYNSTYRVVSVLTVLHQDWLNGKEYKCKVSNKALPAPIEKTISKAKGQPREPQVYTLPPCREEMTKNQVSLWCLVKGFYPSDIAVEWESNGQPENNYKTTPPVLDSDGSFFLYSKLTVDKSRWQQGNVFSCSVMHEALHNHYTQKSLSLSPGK
light: QAVVTQEPSLTVSPGGTVTLTCRSSTGAVTTSNYANWVQQKPGQAPRGLIGGTNKRAPWTPARFSGSLLGDKAALTLLGAQPEDEAEYFCALWYSNLWVFGGGTKLTVLGQPKAAPSVTLFPPSSEELQANKATLVCLISDFYPGAVTVAWKADSSPVKAGVETTTPSKQSNNKYAASSYLSLTPEQWKSHRSYSCQVTHEGSTVEKTVAPTECS
chain: B2 chain 2 with A267G
B4: PR010984, anti-B7H4xCD3 S137-Fc-scFv(PR003366), hIgG1(dCH1, KIH, AAA) (bispecific antibody)
chain 1: EVQLLESGGGLVQPGGSLRLSCAASGRTSGIPAMSWVRQAPGKEREFVAMAWSGGGTIYADSVKGRFTISRDNSKNTLYLQMNSLRAEDTAVYYCAAGRSTSNYADQYNYWGQGTQVTVSSASEPKSSDKTHTCPPCPAPEAAGAPSVFLFPPKPKDTLMISRTPEVTCVVVDVSHEDPEVKFNWYVDGVEVHNAKTKPREEQYNSTYRVVSVLTVLHQDWLNGKEYKCKVSNKALPAPIEKTISKAKGQPREPQVYTLPPCREEMTKNQVSLWCLVKGFYPSDIAVEWESNGQPENNYKTTPPVLDSDGSFFLYSKLTVDKSRWQQGNVFSCSVMHEALHNHYTQKSLSLSPGK
chain 2: B2 chain 2
B5: PR010983, anti-B7H4xCD3 S136-Fc-scFv(PR003366), hIgG1(dCH1, KIH, AAA) (bispecific antibody)
chain 1: B4 chain 1 with Y104R
chain 2: B2 chain 2
B6: PR010985, anti-B7H4xCD3 S138-Fc-scFv(PR003366), hIgG1(dCH1, KIH, AAA) (bispecific antibody)
chain 1: B4 chain 1 with E44G, R45L, F47W, Q116L
chain 2: B2 chain 2
B7: PR010987, anti-B7H4xCD3 S140-Fc-scFv(PR003366), hIgG1(dCH1, KIH, AAA) (bispecific antibody)
chain 1: B4 chain 1 with L5V, S35A, V37F, E44G, R45L, F47W, A97R, Y104R, Q116L
chain 2: B2 chain 2
B8: PR003733, anti-B7H4xCD3 Fab(PR001848)-Fc-scFv(PR003366), hIgG1(KiH, LALA) (bispecific antibody)
heavy: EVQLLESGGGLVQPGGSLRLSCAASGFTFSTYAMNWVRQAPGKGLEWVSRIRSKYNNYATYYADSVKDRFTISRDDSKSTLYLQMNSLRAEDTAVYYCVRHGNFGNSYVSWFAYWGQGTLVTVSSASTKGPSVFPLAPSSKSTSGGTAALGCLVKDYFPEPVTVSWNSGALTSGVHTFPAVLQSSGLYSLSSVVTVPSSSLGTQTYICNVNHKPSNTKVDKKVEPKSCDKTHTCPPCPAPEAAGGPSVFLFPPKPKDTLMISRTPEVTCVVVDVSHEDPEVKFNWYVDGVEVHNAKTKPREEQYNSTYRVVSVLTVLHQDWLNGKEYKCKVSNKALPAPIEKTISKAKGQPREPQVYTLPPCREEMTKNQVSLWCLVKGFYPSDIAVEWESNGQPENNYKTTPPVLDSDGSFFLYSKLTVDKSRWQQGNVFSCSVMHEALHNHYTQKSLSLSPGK
light: B3 light
chain: B2 chain 2 with A267G
B9: PR006002, anti-B7H4xCD3 VH(A1)-Fc-scFv(PR003366), hIgG1(dCH1, KiH, LALA) (bispecific antibody)
chain 1: not shown
chain 2: B2 chain 2 with A267G
B10: PR006003, anti-B7H4xCD3 VH(E2)-Fc-scFv(PR003366), hIgG1(dCH1, KiH, LALA) (bispecific antibody)
chain 1: not shown
chain 2: B2 chain 2 with A267G
B11: PR010982, anti-B7H4xCD3 S135-Fc-scFv(PR003366), hIgG1(dCH1, KIH, AAA) (bispecific antibody)
chain 1: B4 chain 1 with E44G, R45L, F47W, Y104R, Q116L
chain 2: B2 chain 2
B12: PR011628, anti-CD3 S135 HCAb hIgG1(C220S,AAG) (antibody, V domains shown)
VH: EVQLLESGGGLVQPGGSLRLSCAASGRTSGIPAMSWVRQAPGKGLEWVAMAWSGGGTIYADSVKGRFTISRDNSKNTLYLQMNSLRAEDTAVYYCAAGRSTSNRADQYNYWGQGTLVTVSS
notes: Humanized variant of PR006364; heavy-chain-only antibody
B13: PR011632, anti-CD3 S140 HCAb hIgG1(C220S,AAG) (antibody, V domains shown)
VH: B12 VH with L5V, S35A, V37F, A97R
notes: as for B12
B14: PR011631, anti-CD3 S138 HCAb hIgG1(C220S,AAG) (antibody, V domains shown)
VH: B12 VH with R104Y
notes: as for B12
B15: PR011629, anti-CD3 S136 HCAb hIgG1(C220S,AAG) (antibody, V domains shown)
VH: B12 VH with G44E, L45R, W47F, L116Q
notes: as for B12
B16: PR011630, anti-CD3 S137 HCAb hIgG1(C220S,AAG) (antibody, V domains shown)
VH: B12 VH with G44E, L45R, W47F, R104Y, L116Q
notes: as for B12

What was measured:
[1] = molecular target: T1, hCD3e&g-his, Human CD3 epsilon & CD3 gamma Heterodimer Protein with His Tag (Acro Biosystems, CDG-H52W5) (Human, UniProt P07766 23-126; P09693 23-116); experiment: ELISA, plate coated with human CD3e&g-his at 1 µg/mL, anti-human IgG Fc-HRP [D]
T1 construct: Bought protein; also called human CD3E&G heterodimer protein; not shown: His Tag fused to C-terminus of CD3 epsilon chain
Description: (§1) ELISA assays were conducted as briefly described: CD3 proteins were coated onto ELISA plates at 1 μg/mL; testing antibodies OKT3 and PR006364 (A1-HCAb) were diluted from 2 μg/mL to 8 different concentrations by 3-fold serial dilution, or testing antibodies PR006370 (SP34) and PR010991 (3G11-HCAb) were diluted from 100 nM to 11 different concentrations by 2-fold serial dilution; secondary antibody (anti-human IgG Fc-HRP) was used to detect PR006364, PR006370 and PR010991, and secondary antibody (anti-mouse IgG Fc-HRP) was used to detect OKT3 binding signal. The absorption signal at 450 nm (OD450) was recorded by plate reader (Molecular Devices, SpectraMax), and the data were processed and non-linear curve fitting analyzed by GraphPad Prism 8.

[2] = molecular target: T2, hCD3e-his, Human CD3 epsilon Protein with His Tag (Acro Biosystems, CDE-H5223) (Human, UniProt P07766 23-126); experiment: ELISA, plate coated with human CD3e-his at 1 µg/mL, anti-human IgG Fc-HRP [E]
T2 construct: Bought protein; also called human CD3E monomeric protein; monomeric CD3E; not shown: His Tag
Description: as §1

[3] = molecular target: T3, hCD3e&d-his, Human CD3 epsilon & CD3 delta Heterodimer Protein with His Tag (Acro Biosystems, CDD-H52W1) (Human, UniProt P07766 23-126; P04234 22-105); experiment: ELISA, plate coated with human CD3e&d-his at 1 µg/mL, anti-human IgG Fc-HRP [B]
T3 construct: Bought protein; also called human CD3E&D heterodimer protein; not shown: His Tag fused to C-terminus of CD3 epsilon chain
Description: as §1

[4] = molecular target: T4, cynoCD3e&d-his, Cynomolgus CD3 epsilon & CD3 delta Heterodimer Protein (Acro Biosystems, CDD-C52W4) (Cynomolgus, UniProt Q95LI5 22-117; Q95LI8 22-105); experiment: ELISA, plate coated with cyno CD3e&d-his at 1 µg/mL, anti-human IgG Fc-HRP [C]
T4 construct: Bought protein; also called cynomolgus CD3E&D heterodimer protein; not shown: His Tag fused to C-terminus of CD3 epsilon chain; Flag Tag fused to C-terminus of CD3 delta chain
Description: as §1

[5] = molecular target: T5, CD3 on human T cells (human PBMCs or isolated T cells used as effector cells) (human, UniProt P07766 23-207; P04234 22-171; P09693 23-182); experiment: cell-based or functional assay
[6] = molecular target: T5, CD3 on human T cells (human PBMCs or …); experiment: cell-based or functional assay; remark: listed apart in the source
[7] = molecular target: human CD3E&D heterodimer protein (construct not specified; FIG. 9A and FIG. 12) (human, UniProt P07766 23-126; P04234 22-105); experiment: ELISA on coated human CD3e&d heterodimer protein (construct not named on the sheet)
[8] = molecular target: T6, Biotinylated human CD3e&d protein (Acro Biosystems, CDD-H82W6) (human, UniProt P07766 23-126; P04234 22-105, biotinylated protein; chain and site not stated); experiment: BLI (Octet RED96e), biotinylated antigen on SA biosensors, antibody 0.375-12 nM
T6 construct: Bought protein loaded on SA Octet biosensors; also called human CD3 protein
Description: To determine the binding affinities of anti-CD3 antibodies to human or cynomolgus monkey CD3e&d heterodimer proteins, bio-layer interferometry (BLI) assays were carried out by using Octet® RED96e.
Biotinylated human CD3e&d protein (Acro Biosystems, CDD-H82W6) or biotinylated cynomolgus CD3e&d protein (Acro Biosystems, CDD-C82W6) was first loaded onto the surface of SA Octet biosensors (Sartorius, 18-5019) to reach capture levels between 0.5-0.8 nm. The loaded biosensors were then dipped in wells containing 2-fold serial dilutions of testing antibodies to detect association signals, followed by dissociation steps in wells containing kinetic buffer. The association phase was 180 seconds, and the dissociation phase was 900 seconds. The sensorgrams were recorded, and the reference signals were subtracted before curve fitting using ForteBio Data Analysis 11.0 software. Association rates (kon) and dissociation rates (koff) were calculated using a simple one-to-one Langmuir binding model. The equilibrium dissociation constant (KD) was calculated as the ratio of koff/kon.

T5 sequence (P07766 23-207, chain 1 of 3): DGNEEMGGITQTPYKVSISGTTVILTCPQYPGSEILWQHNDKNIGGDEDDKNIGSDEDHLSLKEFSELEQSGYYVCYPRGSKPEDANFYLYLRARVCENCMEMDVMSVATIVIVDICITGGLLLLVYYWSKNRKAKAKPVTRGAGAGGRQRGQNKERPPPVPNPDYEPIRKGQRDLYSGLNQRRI
T5 sequence (P04234 22-171, chain 2 of 3): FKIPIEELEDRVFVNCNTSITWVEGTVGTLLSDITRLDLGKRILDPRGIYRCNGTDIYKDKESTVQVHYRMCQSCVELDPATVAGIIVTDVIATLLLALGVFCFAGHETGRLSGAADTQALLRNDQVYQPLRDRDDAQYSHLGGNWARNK
T5 sequence (P09693 23-182, chain 3 of 3): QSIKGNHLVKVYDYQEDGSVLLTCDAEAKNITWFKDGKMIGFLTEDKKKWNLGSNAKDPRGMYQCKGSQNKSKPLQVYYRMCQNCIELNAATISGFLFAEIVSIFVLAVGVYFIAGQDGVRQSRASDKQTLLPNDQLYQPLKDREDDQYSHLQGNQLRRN
T6 sequence (P07766 23-126, chain 1 of 2): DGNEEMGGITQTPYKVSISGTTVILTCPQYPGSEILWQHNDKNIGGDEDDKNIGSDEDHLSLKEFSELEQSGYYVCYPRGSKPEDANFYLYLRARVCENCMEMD
T6 sequence (P04234 22-105, chain 2 of 2): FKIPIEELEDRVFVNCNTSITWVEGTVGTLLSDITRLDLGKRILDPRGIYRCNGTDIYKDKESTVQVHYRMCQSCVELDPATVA
Sequence of human CD3E&D heterodimer protein (construct not specified; FIG. 9A and FIG. 12) (P07766 23-126, chain 1 of 2): as the sequence (P07766 23-126, chain 1 of 2) above
Sequence of human CD3E&D heterodimer protein (construct not specified; FIG. 9A and FIG. 12) (P04234 22-105, chain 2 of 2): as the sequence (P04234 22-105, chain 2 of 2) above
T4 sequence (Q95LI5 22-117, stated change not applied, chain 1 of 2): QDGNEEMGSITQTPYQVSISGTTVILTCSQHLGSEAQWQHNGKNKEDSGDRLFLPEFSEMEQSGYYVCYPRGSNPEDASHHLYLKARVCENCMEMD
T4 sequence (Q95LI8 22-105, stated change not applied, chain 2 of 2): as the sequence (P04234 22-105, chain 2 of 2) above, with I5V, N15K, I20V, S32T, D33N, I34N, T64A, S74N, V83L counted along it
T3 sequence (P07766 23-126, stated change not applied, chain 1 of 2): as the sequence (P07766 23-126, chain 1 of 2) above
T3 sequence (P04234 22-105, stated change not applied, chain 2 of 2): as the sequence (P04234 22-105, chain 2 of 2) above
T2 sequence (P07766 23-126 limits assumed): as the sequence (P07766 23-126, chain 1 of 2) above
T1 sequence (P07766 23-126, chain 1 of 2): as above
T1 sequence (P09693 23-116, chain 2 of 2): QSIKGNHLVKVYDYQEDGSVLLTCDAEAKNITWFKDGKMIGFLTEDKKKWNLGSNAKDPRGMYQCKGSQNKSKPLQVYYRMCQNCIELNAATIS

Row | Binder | EC50 of T cell-mediated cytotoxicity to MDA-MB-468 (RTCA) [5] | Max cytotoxicity (%) of T cell-mediated cytotoxicity to MDA-MB-468 (RTCA) [5] | EC50 of T cell-mediated cytotoxicity to MDA-MB-468 (RTCA, human T cells, E:T 10:1) [6] | also measured
1 | B1 | – | – | – | EC50 (read off the curve) [1]: ~0.8 nM; EC50 (read off the curve) [2]: ~0.8 nM; EC50 (read off the curve) [3]: ~0.6 nM; EC50 (read off the curve) [4]: ~0.7 nM
2 | B2 | 15.2 nM | 90.7% | – | –
3 | B3 | 0.112 nM | 96.3% | – | –
4 | B4 | – | – | 0.576 nM | –
5 | B5 | – | – | 0.0602 nM | –
6 | B6 | – | – | 2.91 nM | –
7 | B7 | – | – | 0.263 nM | –
8 | B8 | 0.0248 nM | 95.2% | – | –
9 | B9 | 0.033 nM | 94.4% | 0.00111 nM | –
10 | B10 | 0.0465 nM | 95.1% | – | –
11 | B11 | – | – | 0.247 nM | –
12 | B12 | – | – | – | binding result [7]: binds
13 | B13 | – | – | – | binding result [7]: binds
14 | B14 | – | – | – | binding result [7]: binds
15 | B15 | – | – | – | Kd [8]: 0.168 nM; koff [8]: 0.00014 s⁻¹; kon [8]: 833000 M⁻¹ s⁻¹
16 | B16 | – | – | – | binding result [7]: binds

— patent US20260125468A1 (NONA BIOSCIENCES SUZHOU, published 2026)
